The target in data set [1] is T1, FAN1 WT (human, UniProt Q9Y2M0 1-1017). Put plainly: cryo-EM; 3.20 Å; EMD-19844; PDB id inconsistent in paper (Data availability says 9EO1; Supp. Table 3 and text imply 9EOA); MST: 25 mM HEPES pH 7.5, 125 mM KCl, 10 mM CaCl2, 5% glycerol, 1 mM TCEP, 0.005% Tween-20, 0.1% BSA, 10 nM Cy5-DNA, 25 °C; SPR buffer not in the material. The conditions noted are these: protein: recombinant; tags: His tag removed by PreScission; double flap: 1:2 1:3; 5' flap and 3' poly-T flap.

Data set [2] has as its target FAN1 WT;PCNA D232A (human;human, UniProt Q9Y2M0;P12004 1-1017;1-261, |D232A). The data set can be described thus: SPR; FAN1 titrated, 10 µM PCNA D232A; MST: 25 mM HEPES pH 7.5, 125 mM KCl, 10 mM CaCl2, 5% glycerol, 1 mM TCEP, 0.005% Tween-20, 0.1% BSA, 10 nM Cy5-DNA, 25 °C; SPR buffer not in the material. The conditions noted are these: protein: recombinant;recombinant; tags: His tag removed by PreScission;His tag removed by PreScission; copies: 1;3; label: 5'-biotin (SPR); blunt; one unpaired nt in strand 2.

The target of data set [3] is PCNA WT;FAN1 R507H (human;human, UniProt P12004;Q9Y2M0 1-261;1-1017, |R507H). The data set can be described thus: SPR; PCNA titrated, 100 nM FAN1; MST: 25 mM HEPES pH 7.5, 125 mM KCl, 10 mM CaCl2, 5% glycerol, 1 mM TCEP, 0.005% Tween-20, 0.1% BSA, 10 nM Cy5-DNA, 25 °C; SPR buffer not in the material. The conditions noted are these: protein: recombinant;recombinant; tags: His tag removed by PreScission;His tag removed by PreScission; chain copies: 3;1; label: 5'-biotin (SPR); blunt; one unpaired nt in strand 2.

In data set [4] the target is T2, PCNA WT;FAN1 WT (human;human, UniProt P12004;Q9Y2M0 1-261;1-1017, |). The data set is described as above. To be noted: protein: recombinant;recombinant; tags: His tag removed by PreScission;His tag removed by PreScission; chain copies: 3;1; label: 5'-biotin (SPR); blunt; one unpaired nt in strand 2.
Data set [5] concerns the target FAN1 WT;PCNA WT (human;human, UniProt Q9Y2M0;P12004 1-1017;1-261, |). Put plainly: SPR; FAN1 titrated, 10 µM PCNA WT; MST: 25 mM HEPES pH 7.5, 125 mM KCl, 10 mM CaCl2, 5% glycerol, 1 mM TCEP, 0.005% Tween-20, 0.1% BSA, 10 nM Cy5-DNA, 25 °C; SPR buffer not in the material. To be noted: protein: recombinant;recombinant; tags: His tag removed by PreScission;His tag removed by PreScission; copies: 1;3; label: 5'-biotin (SPR); blunt; one unpaired nt in strand 2.

Data set [6] deals with PCNA WT;trFAN1 WT (human;human, UniProt P12004;Q9Y2M0 1-261;371-1017, |). The data set can be described thus: SPR; PCNA titrated, 100 nM trFAN1; MST: 25 mM HEPES pH 7.5, 125 mM KCl, 10 mM CaCl2, 5% glycerol, 1 mM TCEP, 0.005% Tween-20, 0.1% BSA, 10 nM Cy5-DNA, 25 °C; SPR buffer not in the material. To be noted: protein: recombinant;recombinant; tags: His tag removed by PreScission;His tag removed by PreScission; chain copies: 3;1; label: 5'-biotin (SPR); blunt; one unpaired nt in strand 2.

Data set [7] addresses PCNA D232A;trFAN1 R507H (human;human, UniProt P12004;Q9Y2M0 1-261;371-1017, D232A|R507H). Described as above. The conditions noted are these: protein: recombinant;recombinant; tags: His tag removed by PreScission;His tag removed by PreScission; chain copies: 3;1; label: 5'-biotin (SPR); blunt; one unpaired nt in strand 2.
Data set [8] has as its target T1, FAN1 WT. The data set can be described thus: SPR; no PCNA; MST: 25 mM HEPES pH 7.5, 125 mM KCl, 10 mM CaCl2, 5% glycerol, 1 mM TCEP, 0.005% Tween-20, 0.1% BSA, 10 nM Cy5-DNA, 25 °C; SPR buffer not in the material. The conditions noted are these: protein: recombinant; tags: His tag removed by PreScission; label: 5'-biotin (SPR); blunt; one unpaired nt in strand 2.
The target in data set [9] is T2, PCNA WT;FAN1 WT. Put plainly: SPR; 100 nM FAN1; Kd within 4-fold of homoduplex; koff 8.9e-3 s-1, slowest; MST: 25 mM HEPES pH 7.5, 125 mM KCl, 10 mM CaCl2, 5% glycerol, 1 mM TCEP, 0.005% Tween-20, 0.1% BSA, 10 nM Cy5-DNA, 25 °C; SPR buffer not in the material. To be noted: protein: recombinant;recombinant; tags: His tag removed by PreScission;His tag removed by PreScission; chain copies: 3;1; label: 5'-biotin (SPR); blunt; (CAG)2 loop in strand 1.

The target of data set [10] is trFAN1 crystallization construct (human, UniProt Q9Y2M0 364-1017, R507H;K794A;del510-518). Put plainly: X-ray crystallography; 2.65 Å; MST: 25 mM HEPES pH 7.5, 125 mM KCl, 10 mM CaCl2, 5% glycerol, 1 mM TCEP, 0.005% Tween-20, 0.1% BSA, 10 nM Cy5-DNA, 25 °C; SPR buffer not in the material. To be noted: protein: recombinant; tags: His tag removed by PreScission; double flap: 1:2 1:3; 5' flap 1 nt (pG), 3' flap T4.
Chain of trFAN1 crystallization construct (Q9Y2M0 other isoform, or with tags, fused parts or gaps R507H;K794A;del510-518): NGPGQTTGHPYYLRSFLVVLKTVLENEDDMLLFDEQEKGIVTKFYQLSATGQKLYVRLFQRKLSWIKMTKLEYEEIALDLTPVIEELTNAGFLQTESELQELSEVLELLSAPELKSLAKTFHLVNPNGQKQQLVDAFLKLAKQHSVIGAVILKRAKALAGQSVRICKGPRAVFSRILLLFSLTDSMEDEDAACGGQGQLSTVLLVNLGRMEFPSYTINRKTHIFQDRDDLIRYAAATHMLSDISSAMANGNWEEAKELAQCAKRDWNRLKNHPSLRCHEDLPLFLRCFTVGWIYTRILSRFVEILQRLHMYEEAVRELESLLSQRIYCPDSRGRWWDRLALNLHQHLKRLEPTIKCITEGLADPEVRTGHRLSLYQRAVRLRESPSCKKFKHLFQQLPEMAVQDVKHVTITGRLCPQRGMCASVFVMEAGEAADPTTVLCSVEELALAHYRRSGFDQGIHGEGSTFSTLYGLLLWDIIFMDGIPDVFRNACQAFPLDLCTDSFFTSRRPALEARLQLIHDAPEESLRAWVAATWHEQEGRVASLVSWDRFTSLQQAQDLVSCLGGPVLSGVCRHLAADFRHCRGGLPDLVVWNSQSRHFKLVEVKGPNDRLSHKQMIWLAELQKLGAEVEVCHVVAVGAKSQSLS

T2 sequence (P12004 whole entry, chain 1 of 2): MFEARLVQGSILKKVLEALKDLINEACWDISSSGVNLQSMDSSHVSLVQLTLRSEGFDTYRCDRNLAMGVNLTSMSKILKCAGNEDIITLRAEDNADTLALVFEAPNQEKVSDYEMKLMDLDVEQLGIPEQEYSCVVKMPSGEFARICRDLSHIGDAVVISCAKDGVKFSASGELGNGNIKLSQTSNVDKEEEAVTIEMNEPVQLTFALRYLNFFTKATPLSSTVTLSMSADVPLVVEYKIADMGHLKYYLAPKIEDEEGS
T2 sequence (Q9Y2M0 whole entry, chain 2 of 2): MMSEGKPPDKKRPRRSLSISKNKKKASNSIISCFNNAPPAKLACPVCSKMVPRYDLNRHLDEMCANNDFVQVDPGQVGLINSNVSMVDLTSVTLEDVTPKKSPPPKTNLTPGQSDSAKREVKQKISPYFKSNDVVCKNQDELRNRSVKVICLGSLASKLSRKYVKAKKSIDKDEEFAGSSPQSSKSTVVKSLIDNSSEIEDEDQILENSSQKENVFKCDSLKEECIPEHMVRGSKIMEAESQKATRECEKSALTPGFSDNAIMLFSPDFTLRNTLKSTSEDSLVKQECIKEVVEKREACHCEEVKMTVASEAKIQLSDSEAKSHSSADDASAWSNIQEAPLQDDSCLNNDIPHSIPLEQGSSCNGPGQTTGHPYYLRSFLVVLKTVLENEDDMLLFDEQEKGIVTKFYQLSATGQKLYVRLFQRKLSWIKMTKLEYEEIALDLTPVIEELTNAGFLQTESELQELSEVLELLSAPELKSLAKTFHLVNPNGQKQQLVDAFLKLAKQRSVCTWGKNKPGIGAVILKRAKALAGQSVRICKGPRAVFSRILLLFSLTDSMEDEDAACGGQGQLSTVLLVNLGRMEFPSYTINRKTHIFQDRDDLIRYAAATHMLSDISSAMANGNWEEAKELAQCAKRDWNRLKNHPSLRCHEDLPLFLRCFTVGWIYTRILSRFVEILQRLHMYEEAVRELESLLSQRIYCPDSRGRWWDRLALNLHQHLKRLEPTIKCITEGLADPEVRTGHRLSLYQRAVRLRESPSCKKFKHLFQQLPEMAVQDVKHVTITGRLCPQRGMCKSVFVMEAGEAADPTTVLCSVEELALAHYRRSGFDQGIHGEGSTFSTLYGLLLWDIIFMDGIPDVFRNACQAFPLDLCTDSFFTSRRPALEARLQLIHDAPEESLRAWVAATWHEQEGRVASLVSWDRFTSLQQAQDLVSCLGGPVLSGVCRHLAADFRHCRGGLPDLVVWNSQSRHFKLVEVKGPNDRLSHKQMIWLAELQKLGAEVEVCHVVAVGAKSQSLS
T1 sequence (Q9Y2M0 whole entry): as the sequence (Q9Y2M0 whole entry, chain 2 of 2) above
Chain of PCNA D232A;trFAN1 R507H (P12004 whole entry D232A, chain 1 of 2): as the sequence (P12004 whole entry, chain 1 of 2) above, with D232A counted along it
Chain of PCNA D232A;trFAN1 R507H (Q9Y2M0 371-1017 R507H, chain 2 of 2): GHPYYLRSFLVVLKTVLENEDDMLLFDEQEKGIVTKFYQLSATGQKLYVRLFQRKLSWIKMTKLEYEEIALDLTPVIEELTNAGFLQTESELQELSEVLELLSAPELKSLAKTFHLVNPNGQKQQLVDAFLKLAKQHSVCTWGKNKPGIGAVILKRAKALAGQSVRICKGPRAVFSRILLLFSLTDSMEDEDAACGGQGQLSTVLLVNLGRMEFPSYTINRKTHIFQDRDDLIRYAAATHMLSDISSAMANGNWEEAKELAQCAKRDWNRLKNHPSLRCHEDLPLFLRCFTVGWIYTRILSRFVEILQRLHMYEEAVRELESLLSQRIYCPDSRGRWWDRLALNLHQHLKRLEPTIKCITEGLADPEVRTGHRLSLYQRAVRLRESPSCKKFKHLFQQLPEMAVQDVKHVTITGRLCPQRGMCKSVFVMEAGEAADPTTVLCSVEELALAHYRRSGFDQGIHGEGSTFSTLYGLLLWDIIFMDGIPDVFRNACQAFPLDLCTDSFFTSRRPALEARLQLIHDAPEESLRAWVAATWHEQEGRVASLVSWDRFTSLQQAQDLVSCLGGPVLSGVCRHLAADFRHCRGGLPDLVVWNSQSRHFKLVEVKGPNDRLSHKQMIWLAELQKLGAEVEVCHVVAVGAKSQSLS
Chain of PCNA WT;trFAN1 WT (P12004 whole entry, chain 1 of 2): as the sequence (P12004 whole entry, chain 1 of 2) above
Chain of PCNA WT;trFAN1 WT (Q9Y2M0 371-1017, chain 2 of 2): as the sequence (Q9Y2M0 371-1017 R507H, chain 2 of 2) above, with H137R counted along it
Chain of PCNA WT;FAN1 R507H (P12004 whole entry, chain 1 of 2): as the sequence (P12004 whole entry, chain 1 of 2) above
Chain of PCNA WT;FAN1 R507H (Q9Y2M0 whole entry R507H, chain 2 of 2): as the sequence (Q9Y2M0 whole entry, chain 2 of 2) above, with R507H counted along it
Chain of FAN1 WT;PCNA WT (Q9Y2M0 whole entry, chain 1 of 2): as the sequence (Q9Y2M0 whole entry, chain 2 of 2) above
Chain of FAN1 WT;PCNA WT (P12004 whole entry, chain 2 of 2): as the sequence (P12004 whole entry, chain 1 of 2) above
Chain of FAN1 WT;PCNA D232A (Q9Y2M0 whole entry, chain 1 of 2): as the sequence (Q9Y2M0 whole entry, chain 2 of 2) above
Chain of FAN1 WT;PCNA D232A (P12004 whole entry D232A, chain 2 of 2): as the sequence (P12004 whole entry, chain 1 of 2) above, with D232A counted along it

B1: 5' flap DNA (cryo-EM substrate) (dsDNA)
DNA 1: CCCGTCCAGGTCTCGTCCGCGCCACTCGTGTCCAGCGTCG
DNA 2: TGCGGACGAGACCTGGACGGG
DNA 3: CGACGCTGGACACGAGTGGCTTTTTTTT
modifications: 5'-phosphate on strand 2
As to B1, the binding result in [1] is given as “binds”.

B2: 113 bp homoduplex (dsDNA)
DNA 1: CCGCTTTCTTCCCTTCCTTTGTGCACACGTTCCGAGATATCCTAGCAAGTGATCGTCTATGTAGCTCAAGAGTTCGACTTTCCCCGCTAAGCTCTACATCCGAGGCTCGCCGA
DNA 2: TCGGCGAGCCTCGGATGTAGAGCTTAGCGGGGAAAGTCGAACTCTTGAGCTACATAGTACGATCACTTGCTAGGATATCTCGGAACGTGTGCACAAAGGAAGGGAAGAAAGCGG
Turning to B2, the Kd is 0.0054 ± 0.0017 µM in data set [2]; 3 ± 0.8 µM in data set [3]; 1.6 ± 0.9 µM in data set [4]; 0.0072 ± 0.0024 µM in data set [5]; 3.9 ± 1.3 µM in [6]; 14 ± 5.1 µM in [7]. Besides, in data set [8], the Kd came to 0.007 ± 0.0024 µM.

B3: 113 bp (CAG)2 extrahelical extrusion (dsDNA)
DNA 1: CCGCTTTCTTCCCTTCCTTTGTGCACACGTTCCGAGATATCCTAGCAAGTGATCGTCAGCAGCTATGTAGCTCAAGAGTTCGACTTTCCCCGCTAAGCTCTACATCCGAGGCTCGCCGA
DNA 2: B2 DNA 2
Take B3: in data set [9], the binding result is recorded as “binds”.

B4: 5'pG1/3'T4 double flap DNA (crystallography) (dsDNA)
DNA 1: AACACGCCTAGACTCCTCA
DNA 2: TTTGAGGAGTCTTTTT
DNA 3: GAGGCGTG
modifications: 5'-phosphate on strand 3
On to B4, for which the binding result in data set [10] is “binds”.

For the origin of these results see publication PMC12078616, “A FAN1 point mutation associated with accelerated Huntington’s disease progression alters its PCNA-mediated assembly on DNA”.
